Assay results: patent US20240190983A1 (JULIUS MAXIMILIANS UNIVERSIT T W RZBURG, published 2024)

T1: Human TNFR2 (human, UniProt P20333 23-461)
T1 sequence: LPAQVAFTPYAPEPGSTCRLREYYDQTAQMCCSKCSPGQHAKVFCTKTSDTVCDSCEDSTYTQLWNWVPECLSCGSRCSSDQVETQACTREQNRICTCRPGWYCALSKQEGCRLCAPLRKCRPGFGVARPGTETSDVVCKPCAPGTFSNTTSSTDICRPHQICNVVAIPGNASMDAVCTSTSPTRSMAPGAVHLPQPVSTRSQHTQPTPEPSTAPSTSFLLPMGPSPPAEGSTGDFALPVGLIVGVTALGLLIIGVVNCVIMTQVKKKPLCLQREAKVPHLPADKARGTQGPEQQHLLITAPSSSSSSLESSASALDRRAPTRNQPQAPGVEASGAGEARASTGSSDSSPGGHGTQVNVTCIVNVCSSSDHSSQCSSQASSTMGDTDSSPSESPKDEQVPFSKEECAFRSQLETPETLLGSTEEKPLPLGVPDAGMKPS


Each binder was assayed against T1, Human TNFR2 (assay: cell-based or functional assay).

Binder	Activity I (IL8)	Activity II (tox)
C4-Fab2-LC:scFvC4 (antibody) light: MNFGFSLIFLVLVLKGVQCEVKLVPRQLDYKDDDDKELDIVMTQSHKFMSTSVGDRVSITCKASQDVDTAVAWYQQKPGQSPKLLIYWASTRHTGVPDRFTGSGSGTDYTLTISSVQAEDLARYYCQQYYSVPPTFGGGTKLGSEIKRTVAAPSVFIFPPSDEQLKSGTASVVCLLNNFYPREAKVQWKVDNALQSGNSQESVTEQDSKDSTYSLSSTLTLSKADYEKHKVYACEVTHQGLSSPVTKSFNRGECLEQVQLLQSGPELVKPGASVKLSCKASGYSFTSYDINWVKQRPGQGLEWVGWIYPRDGDTKYNEKFKGKAILTVDTSSNTAYMNLHSLTSEDSAVYFCARLTGPYWYFDVWGTGTTVTVSSRSSTKGPKLEEGEFSEAQLDIVMTQSHKFMSTSVGDRVSITCKASQDVDTAVAWYQQKPGQSPKLLIYWASTRHTGVPDRFTGSGSGTDYTLTISSVQAEDLARYYCQQYYSVPPTFGGGTKLEIK heavy: MNFGFSLIFLVLVLKGVQCEVKLVPRQLQVQLLQSGPELVKPGASVKLSCKASGYSFTSYDINWVKQRPGQGLEWVGWIYPRDGDTKYNEKFKGKAILTVDTSSNTAYMNLHSLTSEDSAVYFCARLTGPYWYFDVWGTGTTVTVSSGSSSASTKGPSVFPLAPSSKSTSGGTAALGCLVKDYFPEPVTVSWNSGALTSGVHTFPAVLQSSGLYSLSSVVTVPSSSLGTQTYICNVNHKPSNTKVDKKVEPKSCDKTHTCPPCPA	50 ng/mL	
C4(scFv)-IgG1(N297A) (antibody) light: MNFGFSLIFLVLVLKGVQCEVKLVPRQLDYKDDDDKEFQVQLLQSGPELVKPGASVKLSCKASGYSFTSYDINWVKQRPGQGLEWVGWIYPRDGDTKYNEKFKGKAILTVDTSSNTAYMNLHSLTSEDSAVYFCARLTGPYWYFDVWGTGTTVTVSSRSSTKGPKLEEGEFSEAQLDIVMTQSHKFMSTSVGDRVSITCKASQDVDTAVAWYQQKPGQSPKLLIYWASTRHTGVPDRFTGSGSGTDYTLTISSVQAEDLARYYCQQYYSVPPTFGGGTKLEIKGSEIKRTVAAPSVFIFPPSDEQLKSGTASVVCLLNNFYPREAKVQWKVDNALQSGNSQESVTEQDSKDSTYSLSSTLTLSKADYEKHKVYACEVTHQGLSSPVTKSFNRGEC heavy: not shown		20 ng/mL
C4(scFv)-IgG1(N297A)-HC:TNC (antibody) light: MNFGFSLIFLVLVLKGVQCEVKLVPRQLDYKDDDDKEFQVQLLQSGPELVKPGASVKLSCKASGYSFTSYDINWVKQRPGQGLEWVGWIYPRDGDTKYNEKFKGKAILTVDTSSNTAYMNLHSLTSEDSAVYFCARLTGPYWYFDVWGTGTTVTVSSRSSTKGPKLEEGEFSEAQLDIVMTQSHKFMSTSVGDRVSITCKASQDVDTAVAWYQQKPGQSPKLLIYWASTRHTGVPDRFTGSGSGTDYTLTISSVQAEDLARYYCQQYYSVPPTFGGGTKLEIKGSEIKRTVAAPSVFIFPPSDEQLKSGTASVVCLLNNFYPREAKVQWKVDNALQSGNSQESVTEQDSKDSTYSLSSTLTLSKADYEKHKVYACEVTHQGLSSPVTKSFNRGEC heavy: not shown		10 ng/mL
C4-Fab1 (Fab) light: MNFGFSLIFLVLVLKGVQCEVKLVPRQLDYKDDDDKELDIVMTQSHKFMSTSVGDRVSITCKASQDVDTAVAWYQQKPGQSPKLLIYWASTRHTGVPDRFTGSGSGTDYTLTISSVQAEDLARYYCQQYYSVPPTFGGGTKLGSEIKRTVAAPSVFIFPPSDEQLKSGTASVVCLLNNFYPREAKVQWKVDNALQSGNSQESVTEQDSKDSTYSLSSTLTLSKADYEKHKVYACEVTHQGLSSPVTKSFNRGEC heavy: MNFGFSLIFLVLVLKGVQCEVKLVPRQLDYKDDDDKELQVQLLQSGPELVKPGASVKLSCKASGYSFTSYDINWVKQRPGQGLEWVGWIYPRDGDTKYNEKFKGKAILTVDTSSNTAYMNLHSLTSEDSAVYFCARLTGPYWYFDVWGTGTTVTVSSGSSSASTKGPSVFPLAPSSKSTSGGTAALGCLVKDYFPEPVTVSWNSGALTSGVHTFPAVLQSSGLYSLSSVVTVPSSSLGTQTYICNVNHKPSNTKVDKKVEPKSCDKTHT	0 ng/mL	0 ng/mL
C4-Fab1-LC:scFvC4 (antibody) light: MNFGFSLIFLVLVLKGVQCEVKLVPRQLDYKDDDDKELDIVMTQSHKFMSTSVGDRVSITCKASQDVDTAVAWYQQKPGQSPKLLIYWASTRHTGVPDRFTGSGSGTDYTLTISSVQAEDLARYYCQQYYSVPPTFGGGTKLGSEIKRTVAAPSVFIFPPSDEQLKSGTASVVCLLNNFYPREAKVQWKVDNALQSGNSQESVTEQDSKDSTYSLSSTLTLSKADYEKHKVYACEVTHQGLSSPVTKSFNRGECLEQVQLLQSGPELVKPGASVKLSCKASGYSFTSYDINWVKQRPGQGLEWVGWIYPRDGDTKYNEKFKGKAILTVDTSSNTAYMNLHSLTSEDSAVYFCARLTGPYWYFDVWGTGTTVTVSSRSSTKGPKLEEGEFSEAQLDIVMTQSHKFMSTSVGDRVSITCKASQDVDTAVAWYQQKPGQSPKLLIYWASTRHTGVPDRFTGSGSGTDYTLTISSVQAEDLARYYCQQYYSVPPTFGGGTKLEIK heavy: MNFGFSLIFLVLVLKGVQCEVKLVPRQLDYKDDDDKELQVQLLQSGPELVKPGASVKLSCKASGYSFTSYDINWVKQRPGQGLEWVGWIYPRDGDTKYNEKFKGKAILTVDTSSNTAYMNLHSLTSEDSAVYFCARLTGPYWYFDVWGTGTTVTVSSGSSSASTKGPSVFPLAPSSKSTSGGTAALGCLVKDYFPEPVTVSWNSGALTSGVHTFPAVLQSSGLYSLSSVVTVPSSSLGTQTYICNVNHKPSNTKVDKKVEPKSCDKTHT	10 ng/mL	20 ng/mL
C4-IgG1(N297A) (antibody) light: MNFGFSLIFLVLVLKGVQCEVKLVPRQLDYKDDDDKELDIVMTQSHKFMSTSVGDRVSITCKASQDVDTAVAWYQQKPGQSPKLLIYWASTRHTGVPDRFTGSGSGTDYTLTISSVQAEDLARYYCQQYYSVPPTFGGGTKLGSEIKRTVAAPSVFIFPPSDEQLKSGTASVVCLLNNFYPREAKVQWKVDNALQSGNSQESVTEQDSKDSTYSLSSTLTLSKADYEKHKVYACEVTHQGLSSPVTKSFNRGEC heavy: not shown	0 ng/mL	0 ng/mL
C4-Fab2 (antibody) light: MNFGFSLIFLVLVLKGVQCEVKLVPRQLDYKDDDDKELDIVMTQSHKFMSTSVGDRVSITCKASQDVDTAVAWYQQKPGQSPKLLIYWASTRHTGVPDRFTGSGSGTDYTLTISSVQAEDLARYYCQQYYSVPPTFGGGTKLGSEIKRTVAAPSVFIFPPSDEQLKSGTASVVCLLNNFYPREAKVQWKVDNALQSGNSQESVTEQDSKDSTYSLSSTLTLSKADYEKHKVYACEVTHQGLSSPVTKSFNRGEC heavy: MNFGFSLIFLVLVLKGVQCEVKLVPRQLQVQLLQSGPELVKPGASVKLSCKASGYSFTSYDINWVKQRPGQGLEWVGWIYPRDGDTKYNEKFKGKAILTVDTSSNTAYMNLHSLTSEDSAVYFCARLTGPYWYFDVWGTGTTVTVSSGSSSASTKGPSVFPLAPSSKSTSGGTAALGCLVKDYFPEPVTVSWNSGALTSGVHTFPAVLQSSGLYSLSSVVTVPSSSLGTQTYICNVNHKPSNTKVDKKVEPKSCDKTHTCPPCPA	0 ng/mL	0 ng/mL
C4-IgG1(N297A)-HC:TNC (antibody) light: MNFGFSLIFLVLVLKGVQCEVKLVPRQLDYKDDDDKELDIVMTQSHKFMSTSVGDRVSITCKASQDVDTAVAWYQQKPGQSPKLLIYWASTRHTGVPDRFTGSGSGTDYTLTISSVQAEDLARYYCQQYYSVPPTFGGGTKLGSEIKRTVAAPSVFIFPPSDEQLKSGTASVVCLLNNFYPREAKVQWKVDNALQSGNSQESVTEQDSKDSTYSLSSTLTLSKADYEKHKVYACEVTHQGLSSPVTKSFNRGEC heavy: not shown	100 ng/mL	
